US20180155451A1 (published 2018)

T1: FcγRIIb extracellular domain with C-terminal His tag (human, UniProt P31994 43-217)
T1 construct: extracellular domain; Soluble receptor expressed in FreeStyle293 cells; analyte in Biacore; also called FcgRIIb; 2b; not shown: His tag at the C terminus
T1 sequence (looked up): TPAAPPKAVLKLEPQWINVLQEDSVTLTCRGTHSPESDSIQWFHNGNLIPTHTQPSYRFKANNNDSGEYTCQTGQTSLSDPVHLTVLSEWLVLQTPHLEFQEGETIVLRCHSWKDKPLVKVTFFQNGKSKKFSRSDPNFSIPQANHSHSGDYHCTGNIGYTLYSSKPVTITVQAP

B1: GpH7-A5/GpH7-B3 variant I336_15Y/GpL16-k0 (antibody, human IgG1, kappa)
heavy 1: not shown
heavy 2: not shown
light: DIVMTQSPLSLPVTPGEPASISCQASESLVHSNRNTYLHWYLQKPGQSPQLLIYKVSNRFSGVPDRFSGSGSGTDFTLKISRVEAEDVGVYYCSQNTHVPPTFGQGTKVEIERTVAAPSVFIFPPSDEQLKSGTASVVCLLNNFYPREAKVQWKVDNALQSGNSQESVTEQDSKDSTYSLSSTLTLSKADYEKHKVYACEVTHQGLSSPVTKSFNRGEC
notes: He Ab: heterodimerized anti-glypican-3 IgG1, substitution in one H chain only; also called He Ab I336Y
B2: GpH7-A5/GpH7-B3 variant T335_11K/GpL16-k0 (antibody, human IgG1, kappa)
heavy 1: not shown
heavy 2: not shown
light: B1 light
notes: He Ab: heterodimerized anti-glypican-3 IgG1, substitution in one H chain only; also called He Ab T335K
B3: GpH7-A5/GpH7-B3 variant I336_19Q/GpL16-k0 (antibody, human IgG1, kappa)
heavy 1: not shown
heavy 2: not shown
light: B1 light
notes: He Ab: heterodimerized anti-glypican-3 IgG1, substitution in one H chain only; also called He Ab I336Q
B4: GpH7-A5/GpH7-B3 variant P329_02A/GpL16-k0 (antibody, human IgG1, kappa)
heavy 1: not shown
heavy 2: not shown
light: B1 light
notes: He Ab: heterodimerized anti-glypican-3 IgG1, substitution in one H chain only; also called He Ab P329A
B5: GpH7-A5/GpH7-B3 variant P329_15Y/GpL16-k0 (antibody, human IgG1, kappa)
heavy 1: not shown
heavy 2: not shown
light: B1 light
notes: He Ab: heterodimerized anti-glypican-3 IgG1, substitution in one H chain only; also called He Ab P329Y
B6: GpH7-A5/GpH7-B3 variant I336_20W/GpL16-k0 (antibody, human IgG1, kappa)
heavy 1: not shown
heavy 2: not shown
light: B1 light
notes: He Ab: heterodimerized anti-glypican-3 IgG1, substitution in one H chain only; also called He Ab I336W
B7: GpH7-A5/GpH7-B3 variant L328_18N/GpL16-k0 (antibody, human IgG1, kappa)
heavy 1: not shown
heavy 2: not shown
light: B1 light
notes: He Ab: heterodimerized anti-glypican-3 IgG1, substitution in one H chain only; also called He Ab L328N
B8: GpH7-A5/GpH7-B3 variant P329_13S/GpL16-k0 (antibody, human IgG1, kappa)
heavy 1: not shown
heavy 2: not shown
light: B1 light
notes: He Ab: heterodimerized anti-glypican-3 IgG1, substitution in one H chain only; also called He Ab P329S
B9: GpH7-A5/GpH7-B3 variant P329_10E/GpL16-k0 (antibody, human IgG1, kappa)
heavy 1: not shown
heavy 2: not shown
light: B1 light
notes: He Ab: substitution in one H chain only; also called He Ab P329E
B10: GpH7-A5/GpH7-B3 variant L328_01G/GpL16-k0 (antibody, human IgG1, kappa)
heavy 1: not shown
heavy 2: not shown
light: B1 light
notes: He Ab: heterodimerized anti-glypican-3 IgG1, substitution in one H chain only; also called He Ab L328G
B11: GpH7-A5/GpH7-B3 variant P329_09D/GpL16-k0 (antibody, human IgG1, kappa)
heavy 1: not shown
heavy 2: not shown
light: B1 light
notes: He Ab: substitution in one H chain only; also called He Ab P329D
B12: GpH7-A5/GpH7-B3 variant P329_20W/GpL16-k0 (antibody, human IgG1, kappa)
heavy 1: not shown
heavy 2: not shown
light: B1 light
notes: He Ab: heterodimerized anti-glypican-3 IgG1, substitution in one H chain only; also called He Ab P329W
B13: GpH7-A5/GpH7-B3 variant P331_01G/GpL16-k0 (antibody, human IgG1, kappa)
heavy 1: not shown
heavy 2: not shown
light: B1 light
notes: He Ab: heterodimerized anti-glypican-3 IgG1, substitution in one H chain only; also called He Ab P331G
B14: GpH7-A5/GpH7-B3 variant P329_04F/GpL16-k0 (antibody, human IgG1, kappa)
heavy 1: not shown
heavy 2: not shown
light: B1 light
notes: He Ab: heterodimerized anti-glypican-3 IgG1, substitution in one H chain only; also called He Ab P329F
B15: GpH7-A5/GpH7-B3 variant P329_03V/GpL16-k0 (antibody, human IgG1, kappa)
heavy 1: not shown
heavy 2: not shown
light: B1 light
notes: He Ab: heterodimerized anti-glypican-3 IgG1, substitution in one H chain only; also called He Ab P329V
B16: GpH7-A5/GpH7-B3 variant P329_11K/GpL16-k0 (antibody, human IgG1, kappa)
heavy 1: not shown
heavy 2: not shown
light: B1 light
notes: He Ab: substitution in one H chain only; also called He Ab P329K
B17: GpH7-A5/GpH7-B3 variant P329_06M/GpL16-k0 (antibody, human IgG1, kappa)
heavy 1: not shown
heavy 2: not shown
light: B1 light
notes: He Ab: heterodimerized anti-glypican-3 IgG1, substitution in one H chain only; also called He Ab P329M
B18: GpH7-A5/GpH7-B3 variant P329_12R/GpL16-k0 (antibody, human IgG1, kappa)
heavy 1: not shown
heavy 2: not shown
light: B1 light
notes: He Ab: substitution in one H chain only; also called He Ab P329R
B19: GpH7-A5/GpH7-B3 variant P329_07I/GpL16-k0 (antibody, human IgG1, kappa)
heavy 1: not shown
heavy 2: not shown
light: B1 light
notes: He Ab: heterodimerized anti-glypican-3 IgG1, substitution in one H chain only; also called He Ab P329I
B20: GpH7-A5/GpH7-B3 variant P329_18N/GpL16-k0 (antibody, human IgG1, kappa)
heavy 1: not shown
heavy 2: not shown
light: B1 light
notes: He Ab: heterodimerized anti-glypican-3 IgG1, substitution in one H chain only; also called He Ab P329N
B21: GpH7-A5/GpH7-B3 variant T335_12R/GpL16-k0 (antibody, human IgG1, kappa)
heavy 1: not shown
heavy 2: not shown
light: B1 light
notes: He Ab: heterodimerized anti-glypican-3 IgG1, substitution in one H chain only; also called He Ab T335R
B22: GpH7-A5/GpH7-B3 variant P329_16H/GpL16-k0 (antibody, human IgG1, kappa)
heavy 1: not shown
heavy 2: not shown
light: B1 light
notes: He Ab: heterodimerized anti-glypican-3 IgG1, substitution in one H chain only; also called He Ab P329H
B23: GpH7-A5/GpH7-B3 variant L328_05P/GpL16-k0 (antibody, human IgG1, kappa)
heavy 1: not shown
heavy 2: not shown
light: B1 light
notes: He Ab: heterodimerized anti-glypican-3 IgG1, substitution in one H chain only; also called He Ab L328P
B24: GpH7-A5/GpH7-B3 variant P329_19Q/GpL16-k0 (antibody, human IgG1, kappa)
heavy 1: not shown
heavy 2: not shown
light: B1 light
notes: He Ab: heterodimerized anti-glypican-3 IgG1, substitution in one H chain only; also called He Ab P329Q
B25: GpH7-A5/GpH7-B3 variant P329_08L/GpL16-k0 (antibody, human IgG1, kappa)
heavy 1: not shown
heavy 2: not shown
light: B1 light
notes: He Ab: heterodimerized anti-glypican-3 IgG1, substitution in one H chain only; also called He Ab P329L
B26: GpH7-A5/GpH7-B3 variant P329_14T/GpL16-k0 (antibody, human IgG1, kappa)
heavy 1: not shown
heavy 2: not shown
light: B1 light
notes: He Ab: heterodimerized anti-glypican-3 IgG1, substitution in one H chain only; also called He Ab P329T

Molecular target: T2, FcγRIa extracellular domain with C-terminal His tag (human, UniProt P12314 16-292)
T2 construct: extracellular domain; Soluble receptor expressed in FreeStyle293 cells; analyte in Biacore; also called FcgRI; FcgRIa; not shown: His tag at the C terminus
Assay: SPR (Biacore), antibody captured on antigen peptide chip, FcγR as analyte; binding relative to GpH7-A5/GpH7-B3/GpL16-k0 = 100

T2 sequence (P12314 16-292): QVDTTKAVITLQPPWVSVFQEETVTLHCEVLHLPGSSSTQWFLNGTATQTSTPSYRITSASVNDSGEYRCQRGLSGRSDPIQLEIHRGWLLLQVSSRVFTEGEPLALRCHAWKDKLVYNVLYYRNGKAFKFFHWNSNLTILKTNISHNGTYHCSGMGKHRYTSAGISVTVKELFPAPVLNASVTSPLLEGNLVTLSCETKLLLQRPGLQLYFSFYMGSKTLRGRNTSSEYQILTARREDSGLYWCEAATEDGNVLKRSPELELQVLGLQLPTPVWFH

He/Con_1a (Ia binding)	Binder
103 % of control (control = 100)	B1
111 % of control (control = 100)	B2
104 % of control (control = 100)	B3
102 % of control (control = 100)	B4
95.6 % of control (control = 100)	B5
86.7 % of control (control = 100)	B6
98.7 % of control (control = 100)	B7
93.3 % of control (control = 100)	B8
78.8 % of control (control = 100)	B9
97.2 % of control (control = 100)	B10
77.6 % of control (control = 100)	B11
96.9 % of control (control = 100)	B12
85.3 % of control (control = 100)	B13
92.7 % of control (control = 100)	B14
97.4 % of control (control = 100)	B15
70.4 % of control (control = 100)	B16
85.3 % of control (control = 100)	B17
74.3 % of control (control = 100)	B18
94.1 % of control (control = 100)	B19
92.4 % of control (control = 100)	B20
113 % of control (control = 100)	B21
95.6 % of control (control = 100)	B22
92.2 % of control (control = 100)	B23
70.7 % of control (control = 100)	B24
85.7 % of control (control = 100)	B25
89.7 % of control (control = 100)	B26

Molecular target: T1, FcγRIIb extracellular domain with …
Assay: as above

He/Con_2b (IIb binding)	Binder
68.2 % of control (control = 100)	B1
91 % of control (control = 100)	B2
58.2 % of control (control = 100)	B3
40.5 % of control (control = 100)	B4
45.7 % of control (control = 100)	B5
20.3 % of control (control = 100)	B6
80.8 % of control (control = 100)	B7
41 % of control (control = 100)	B8
52.7 % of control (control = 100)	B9
80.2 % of control (control = 100)	B10
53.5 % of control (control = 100)	B11
45.1 % of control (control = 100)	B12
45.4 % of control (control = 100)	B13
32.2 % of control (control = 100)	B14
38.5 % of control (control = 100)	B15
16.9 % of control (control = 100)	B16
29.1 % of control (control = 100)	B17
17.6 % of control (control = 100)	B18
34.6 % of control (control = 100)	B19
40.4 % of control (control = 100)	B20
91.9 % of control (control = 100)	B21
39.1 % of control (control = 100)	B22
65.1 % of control (control = 100)	B23
30.7 % of control (control = 100)	B24
29.1 % of control (control = 100)	B25
37.9 % of control (control = 100)	B26

Molecular target: T2, FcγRIa extracellular domain with …
Assay: SPR (Biacore); He/Con_1a divided by He/Con_2b (FcγRIIb)
Procedure, shortened: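 Antibodies with one altered H chain, captured on antigen-peptide chips, were tested against activating and inhibitory FcγRs by SPR. Running buffer HBS-EP+, 25 °C; 10 mM glycine-HCl, pH 1.5 regenerated the surface.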

He_1a/2b (Ia/IIb)	Binder
1.51	B1
1.22	B2
1.78	B3
2.52	B4
2.09	B5
4.28	B6
1.22	B7
2.27	B8
1.5	B9
1.21	B10
1.45	B11
2.15	B12
1.88	B13
2.88	B14
2.53	B15
4.17	B16
2.94	B17
4.22	B18
2.72	B19
2.29	B20
1.23	B21
2.45	B22
1.42	B23
2.31	B24
2.95	B25
2.37	B26
